From article PMC6681466 (Chemsuschem, 2018)

Experiments:
Cs7β-HSDH [1] = biological target: T1, Cs7β-HSDH (Clostridium sardiniense, UniProt G9FRD6); test: NADPH formation at […] nm, fit with substrate inhibition; assay type: biochemical; details: 1.0 mM UDCA, 50 mM KPi pH 8.0, 10% methanol, 25 °C
T1 sequence (G9FRD6 1-261): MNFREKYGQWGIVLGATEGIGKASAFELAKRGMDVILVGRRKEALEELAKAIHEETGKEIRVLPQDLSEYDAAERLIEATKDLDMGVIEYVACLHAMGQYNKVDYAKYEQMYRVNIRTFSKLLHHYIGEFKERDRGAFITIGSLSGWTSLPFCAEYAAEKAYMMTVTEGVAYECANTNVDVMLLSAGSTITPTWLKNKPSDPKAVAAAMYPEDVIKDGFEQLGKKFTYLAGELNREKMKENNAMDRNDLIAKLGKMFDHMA

Ls7β-HSDH [2] = test: NADH formation at […] nm, fit with substrate inhibition; assay type: biochemical, Levilactobacillus spicheri; details: 2.0 mM NAD+, 50 mM KPi pH 8.0, 10% methanol, 25 °C
Ls7β-HSDH [3] = test: as above; assay type: biochemical, Levilactobacillus spicheri; details: read-out: UDCA / K m / [mmol L^-1]; 2.0 mM NAD+, 50 mM KPi pH 8.0, 10% methanol, 25 °C
Cs7β-HSDH [4] = biological target: T1, Cs7β-HSDH; test: NADPH formation at […] nm, fit with substrate inhibition; assay type: biochemical; details: 2.0 mM NADP+, 50 mM KPi pH 8.0, 10% methanol, 25 °C
Ls7β-HSDH [5] = test: NADH consumption at […] nm, Michaelis-Menten; assay type: biochemical, Levilactobacillus spicheri; details: 0.5 mM NADH, 50 mM KPi pH 8.0, 10% methanol, 25 °C
purified protein [6] = substrate: C[C@H](CCC(=O)O)[C@H]1CC[C@H]2[C@@H]3[C@@H](O)C[C@@H]4C[C@H](O)CC[C@]4(C)[C@H]3CC[C@]12C; test: purified protein; details: 2.0 mM NADP+, 50 mM KPi pH 8.0, 10% methanol, 25 °C
purified protein [7] = substrate: C[C@H](CCC(=O)O)[C@H]1CC[C@H]2[C@@H]3C(=O)C[C@@H]4C[C@H](O)CC[C@]4(C)[C@H]3C[C@H](O)[C@]12C; test: purified protein; details: 0.5 mM NADPH, 50 mM KPi pH 8.0, 10% methanol, 25 °C
purified protein [8] = substrate: [H][C@]12CC(=O)[C@@]3([H])[C@]4([H])CC[C@H]([C@H](C)CCC(=O)O)[C@@]4(C)CC[C@]3([H])[C@@]1(C)CC[C@@H](O)C2; test: purified protein; details: 0.5 mM NADPH, 50 mM KPi pH 8.0, 10% methanol, 25 °C

In the case of `NC(=O)c1ccc[n+]([C@@H]2O[C@H](COP(=O)(O)OP(=O)(O)OC[C@H]3O[C@@H](n4cnc5c(N)ncnc54)[C@H](OP(=O)(O)O)[C@@H]3O)[C@@H](O)[C@H]2O)c1` [NADP^+], the “NADP^+ / K i /” value (Cs7β-HSDH [1]) is reported as 10000 ± 3000 µM.

With `C[C@H](CCC(=O)O)[C@H]1CC[C@H]2[C@@H]3[C@@H](O)C[C@@H]4C[C@H](O)CC[C@]4(C)[C@H]3CC[C@]12C` [UDCA] the “UDCA / K i /” value (Ls7β-HSDH [2]) was 800 ± 300 µM, the Km (Ls7β-HSDH [3]) was 156 ± 51 µM and the “UDCA / K i /” value (Cs7β-HSDH [4]) was 1400 ± 300 µM.

Work on `C[C@H](CCC(=O)O)[C@H]1CC[C@H]2[C@@H]3C(=O)C[C@@H]4C[C@H](O)CC[C@]4(C)[C@H]3C[C@H](O)[C@]12C` [7-oxo-DCA] yielded a Km (Ls7β-HSDH [5]; read-out: 7-oxo-DCA / K m / [mmol L^-1]) of 131 ± 28 µM.

For `C[C@H](CCC(=O)O)[C@H]1CC[C@H]2[C@@H]3C(=O)C[C@@H]4C[C@H](O)CC[C@]4(C)[C@H]3CC[C@]12C` [7-oxo-LCA], the Km (Ls7β-HSDH [5]; read-out: 7-oxo-LCA / K m / [mmol L^-1]) was 38 ± 14 µM.

B1: Cs7β-HSDH (Clostridium sardiniense) (protein)
chain: MNFREKYGQWGIVLGATEGIGKASAFELAKRGMDVILVGRRKEALEELAKAIHEETGKEIRVLPQDLSEYDAAERLIEATKDLDMGVIEYVACLHAMGQYNKVDYAKYEQMYRVNIRTFSKLLHHYIGEFKERDRGAFITIGSLSGWTSLPFCAEYAAEKAYMMTVTEGVAYECANTNVDVMLLSAGSTITPTWLKNKPSDPKAVAAAMYPEDVIKDGFEQLGKKFTYLAGELNREKMKENNAMDRNDLIAKLGKMFDHMA
For B1, the Km (purified protein [6]) was 160 ± 30 µM, the kcat (purified protein [6]) was 3.61 ± 0.34 s⁻¹ and the kcat/Km (purified protein [6]) was 22600 M⁻¹ s⁻¹. It also gave a Km (purified protein [7]) of 106 ± 5 µM, a kcat (purified protein [7]) of 2.27 ± 0.03 s⁻¹ and a kcat/Km (purified protein [7]) of 21300 M⁻¹ s⁻¹. It also gave a Km (purified protein [8]) of 128 ± 27 µM, a kcat (purified protein [8]) of 1.37 s⁻¹ and a kcat/Km (purified protein [8]) of 10700 M⁻¹ s⁻¹.
